Results as given in patent publication US10308712B2, “Antibodies that bind human cannabinoid 1 (CB1) receptor” (priority 2014, dated 2019).
Residue numbers refer to the chain shown, from its start.

B1: 36E12B6C2: hybridoma-derived anti-CB1 antibody; HC variable SEQ ID NO: 18, LC variable SEQ ID NO: 22 (antibody, listed as Mus sp., V domains shown)
VH: QVQLQQSGAELVRPGSSVKISCKASGYEFSYYWMNWVKQRPGQGLQWIGQIYPGDGDTNYNGKFKGKATLTADKSSSTAYMHLTSLTSEDSAVYFCARSGGNPFAFWGQGTLVTVSA
VL: DIQMTQTSSSLSASLGDRVTFSCRASQDISNYLNWYQQKPDGTVKLLIYYTSRLHSGVTSRFRGSGSGTDYSLTISNLEQEDVATYFCQQGHTLPWSFGGGTKLEIK
B2: PA2LR3-P4C6: CB1 receptor binding IgG clone (antibody, V domains shown)
VH: B1 VH with Q1E, E28A, Q46E, H82Q, T84S, G100H, P103Y, A105P, F106Y
VL: DIVITQSPAIVSASLGERVTMTCTASSSVSSSYLHWYQQKPGSSPKLWIYSTSNLASGVPARFSGSGSGTSYSLTISSMEAEDAATYYCQQWSSYPLTFGAGTKLEIK
modifications: PA2LR3-P4C6 Heavy Chain Variable region; PA2LR3-P4C6 Light Chain Variable region
B3: PA2LR3-P4G10: CB1 receptor binding IgG clone (antibody, V domains shown)
VH: B1 VH with Q1E, S7F, E28A, Q46E, H82Q, T84S, G100H, P103Y, F106Y
VL: B2 VL with I4L, V11M, Y95N, I107L
modifications: PA2LR3-P4G10 Heavy Chain Variable region; PA2LR3-P4G10 Light Chain Variable region
B4: PA2LR3-P3A8: CB1 antibody (antibody, V domains shown)
VH: B1 VH with Q1E, E28A, Q46E, F64V, H82Q, T84S, G100H, P103Y, F106Y
VL: B2 VL with I4M, V11M, Y95N, I107L
modifications: PA2LR3-P3A8 Heavy Chain Variable Region; PA2LR3-P3A8 Light Chain Variable Region
notes: CB1 antibody
B5: PA2LR3-P3F8: CB1 antibody (antibody, V domains shown)
VH: EVQLQQSGAELVRPGSSVKISCKASGYAFSNYWMNWVKQRPGQGLEWIGQIYPGDGDTNYNGNFKGKATLTADKSSSTAYMQLSSLTSEDSAVYFCARSHGNYFPYWGQGTLVTVSA
VL: B2 VL with I4L, V11M, I107L
modifications: PA2LR3-P3F8 Heavy Chain Variable Region; PA2LR3-P3F8 Light Chain Variable Region
notes: CB1 antibody
B6: PA2LR3-P5E7: CB1 antibody (antibody, V domains shown)
VH: B5 VH with Y60F, N63K, K67R, T69I, K74I, S77N
VL: DIVLTQSPTTMAASPGEKITITCSASSSISSNYLHWYQQKPGFSPKLLIYRTSTLASGVPARFSGSGSGTSYSLTISSMEAEDAATYYCHQYHRSPHTFGSGTKLEIK
modifications: PA2LR3-P5E7 Heavy Chain Variable region; PA2LR3-P5E7 Light Chain Variable region
notes: CB1 antibody
B7: PA2LR3-P6B12: HC variable SEQ ID NO: 50, LC variable SEQ ID NO: 54; potential allosteric modulator (antibody, V domains shown)
VH: B5 VH with N31Y, N63K, P105A
VL: B2 VL with D1Q, I4L, V11M, Q90H, W92Y, S93H, S94R, Y95S, T98A, I107L
modifications: PA2LR3-P6B12 Heavy chain variable region; PA2LR3-P6B12 Light chain variable region
B8: PA2LR3-P6G7: HC variable SEQ ID NO: 58, LC variable SEQ ID NO: 62; potential agonist IgG (antibody, V domains shown)
VH: B5 VH with Y27F, Y60F, N63K, K67R, T69I, K74I, S77N
VL: B2 VL with I4L, V11M, Q90H, W92H, S93H, S94R, Y95S, L97P, I107L
modifications: PA2LR3-P6G7 Heavy chain variable region; PA2LR3-P6G7 Light chain variable region
B9: PA2LR3-P4B1: HC variable SEQ ID NO: 42, LC variable SEQ ID NO: 46; potential agonist IgG (antibody, V domains shown)
VH: B5 VH with Y27F, Y60F, N63K, K67R, T69I, K74I, S77N
VL: B2 VL with D1Q, I4L, V11M, Q90H, W92Y, S93H, S94R, Y95S, I107L
modifications: PA2LR3-P4B1 Heavy chain variable region; PA2LR3-P4B1 Light chain variable region
B10: PA2LR3-P4B5: CB1 antibody; HC variable SEQ ID NO: 26, LC variable SEQ ID NO: 30 (antibody, V domains shown)
VH: B5 VH with N31Y, N61S, N63R, M81I
VL: B2 VL with I4L, T5N, V11M, Q90H, W92Y, S93H, S94R, Y95S
modifications: PA2LR3- P4B5 Heavy chain variable region; PA2LR3- P4B5 Light chain variable region

Columns and labels:
[1] = biological target: T1, human CB1 expressing TRex-CHO cells (Homo sapiens, UniProt P21554); type: cell-based
T1 construct: pcDNA4/TO native full length human CB1 receptor construct was transfected into tetracycline inducible system Trex-CHO and Trex-293 cells; expressed in transfected cells

[2] = biological target: Mouse CB1 (Mus musculus, UniProt P47746); assay: Flow cytometry (FACS) cross-reactivity, mouse CB1 cells; conditions: in words
[3] = biological target: human CB2 (Homo sapiens, UniProt P34972); assay: Flow cytometry (FACS) selectivity, human CB2 cells; conditions: in words
[4] = tested on: Trex-CHO CB1 receptor cells, WIN55,212 induced ERK phosphorylation; assay: ERK activation assay (western blot); conditions: IgG 300 nM, WIN55,212 100 nM
[5] = tested on: TRex CHO parental cells; assay: Flow cytometry (FACS) binding, parental cells; conditions: in words
[6] = biological target: T2, CB1 TRex-CHO cells (Homo sapiens, UniProt P21554); type: cell-based; conditions: antibody 300 nM, 1 hour
T2 construct: pcDNA4/TO native full length human CB1 receptor construct was transfected into tetracycline inducible system Trex-CHO and Trex-293 cells; expressed in transfected cells
T2 sequence (P21554 whole entry): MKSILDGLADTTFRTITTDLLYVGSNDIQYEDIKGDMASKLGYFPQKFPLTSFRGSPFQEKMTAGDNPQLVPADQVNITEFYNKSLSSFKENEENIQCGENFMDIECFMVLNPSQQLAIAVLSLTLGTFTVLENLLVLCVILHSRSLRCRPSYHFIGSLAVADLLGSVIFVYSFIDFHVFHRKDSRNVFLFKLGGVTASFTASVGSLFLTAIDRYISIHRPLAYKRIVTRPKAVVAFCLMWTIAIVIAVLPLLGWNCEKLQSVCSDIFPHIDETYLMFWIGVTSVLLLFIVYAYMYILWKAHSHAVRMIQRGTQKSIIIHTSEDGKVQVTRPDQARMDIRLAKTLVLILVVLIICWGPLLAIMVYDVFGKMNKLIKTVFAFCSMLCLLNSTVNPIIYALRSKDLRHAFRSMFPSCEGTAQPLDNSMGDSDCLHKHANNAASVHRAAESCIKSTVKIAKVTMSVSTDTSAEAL

T1 sequence (P21554 whole entry): as above
Mouse CB1, sequence (P47746 whole entry): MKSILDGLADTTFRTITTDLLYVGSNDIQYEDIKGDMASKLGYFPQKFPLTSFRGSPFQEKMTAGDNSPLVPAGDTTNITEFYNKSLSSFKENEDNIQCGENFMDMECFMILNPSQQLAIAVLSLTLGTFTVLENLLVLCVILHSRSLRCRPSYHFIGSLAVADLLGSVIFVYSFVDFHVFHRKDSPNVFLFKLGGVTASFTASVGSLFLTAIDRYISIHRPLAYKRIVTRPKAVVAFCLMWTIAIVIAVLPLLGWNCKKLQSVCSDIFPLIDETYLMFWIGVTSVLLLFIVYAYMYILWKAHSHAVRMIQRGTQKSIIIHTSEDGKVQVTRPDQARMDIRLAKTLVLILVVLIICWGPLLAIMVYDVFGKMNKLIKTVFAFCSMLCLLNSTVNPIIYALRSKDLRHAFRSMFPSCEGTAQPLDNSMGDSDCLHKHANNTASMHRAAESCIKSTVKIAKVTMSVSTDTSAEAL
human CB2, sequence (P34972 whole entry): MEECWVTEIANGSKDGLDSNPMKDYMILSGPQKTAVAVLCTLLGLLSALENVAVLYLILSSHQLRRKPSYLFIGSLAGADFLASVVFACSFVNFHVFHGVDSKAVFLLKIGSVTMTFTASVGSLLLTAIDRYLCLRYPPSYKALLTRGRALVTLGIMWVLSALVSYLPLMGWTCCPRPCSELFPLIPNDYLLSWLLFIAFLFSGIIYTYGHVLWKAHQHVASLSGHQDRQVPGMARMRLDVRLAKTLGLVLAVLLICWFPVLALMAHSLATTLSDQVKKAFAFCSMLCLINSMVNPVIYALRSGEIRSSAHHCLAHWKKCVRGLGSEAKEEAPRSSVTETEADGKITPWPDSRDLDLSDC

Molecule | induction of CB1 receptor internalization by the substance alone [6] | further results
Cc1c(C(=O)NN2CCS(=O)(=O)CC2)nn(-c2ccc(Cl)cc2Cl)c1-c1ccc(C#CCCC#N)cc1 [AM6545, reference compound] | – | effect on cAMP levels ([1]; 1.5 μM or 5 μM forskolin stimulated TRex-CHO CB1 cells, no exogenous agonist): did not affect cAMP levels
B1 | – | cross-activity / cross-reactivity Mouse CB1 [2]: do not have cross-activity; cross-activity / selectivity human CB2 [3]: do not have cross-activity; blocking of WIN55,212 induced ERK phosphorylation [4]: blocked; mechanism (inverse agonist or neutral antagonist) ([1]; 5 μM forskolin, no agonist (Example 11)): inverse agonists; binding to parental TRex CHO [5]: not parental TRex CHO
B2 | do not induce | –
B3 | do not induce | –
B4 | do not induce | –
B5 | do not induce | –
B6 | do not induce | –
B7 | do not induce | –
B8 | do not induce | –
B9 | do not induce | –
B10 | do not induce | –
